Consider twelve molecules from patent US20240270821A1, “GIP/GLP1/GCG TRI-RECEPTOR AGONISTS AND USES THEREOF” (priority 2023, published 2024).

Starred links: 1 amine or outer side, 2 acyl side, 3 side chain; linkers in the order of their positions; H or OH if unused. Non-standard residues stand in square brackets, D forms with d. Groups on a side chain read outwards from the residue. No end group written: not given here. *: point of attachment. C20 diacid = O=C(O)CCCCCCCCCCCCCCCCCCC(=O)*; γGlu = O=C(O)[C@H](CCC(=O)[*:2])N[*:1]; αMeL = CC(C)C[C@](C)(N)C(=O)O; Orn = NCCC[C@H](N)C(=O)O; AEEA = NCCOCCOCC(=O)O; Aib = CC(C)(N)C(=O)O

The chains are these.
T1: human GIP receptor (human) (UniProt P48546)
T1 sequence (looked up): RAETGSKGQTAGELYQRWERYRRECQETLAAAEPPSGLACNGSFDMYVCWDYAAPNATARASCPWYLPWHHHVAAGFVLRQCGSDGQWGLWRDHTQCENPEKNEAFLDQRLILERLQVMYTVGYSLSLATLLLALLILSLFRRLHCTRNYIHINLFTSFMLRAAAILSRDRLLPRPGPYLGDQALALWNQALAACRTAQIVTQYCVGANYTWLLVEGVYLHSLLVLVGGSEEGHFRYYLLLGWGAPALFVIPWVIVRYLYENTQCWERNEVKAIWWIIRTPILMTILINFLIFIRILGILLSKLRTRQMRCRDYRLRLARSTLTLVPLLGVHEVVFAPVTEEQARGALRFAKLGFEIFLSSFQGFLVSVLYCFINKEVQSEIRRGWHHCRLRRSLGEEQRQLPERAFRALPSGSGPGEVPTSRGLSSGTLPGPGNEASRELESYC

B1: Example 660 (SEQ ID NO: 666) (peptide)
chain: YXQGTXTSDXSILLDKKAQXAFIEYLEEGGPSSGAPPPEGTGE
modifications: synthetic construct; SITE 2: note = 2-Aminoisobutyric Acid; SITE 6: note = alpha-methyl-2-fluoro-L-phenylalanine; SITE 10: note = 3-(4-Pyridyl)-L-alanine; SITE 17: note = Lysine is chemically modified through conjugation of the epsilon-amino group of the Lysine side chain with (gamma-Glu)2-CO-(CH2)1
B2: Example 659 (SEQ ID NO: 665) (peptide)
chain: YXQGTXTSDXSILLDKKAQXAFIEYLEEGGPSSGAPPPEGTE
modifications: synthetic construct; SITE 2: note = 2-Aminoisobutyric Acid; SITE 6: note = alpha-methyl-2-fluoro-L-phenylalanine; SITE 10: note = 3-(4-Pyridyl)-L-alanine; SITE 17: note = Lysine is chemically modified through conjugation of the epsilon-amino group of the Lysine side chain with (gamma-Glu)2-CO-(CH2)1

Chain of hGLP-1R (P43220 24-463): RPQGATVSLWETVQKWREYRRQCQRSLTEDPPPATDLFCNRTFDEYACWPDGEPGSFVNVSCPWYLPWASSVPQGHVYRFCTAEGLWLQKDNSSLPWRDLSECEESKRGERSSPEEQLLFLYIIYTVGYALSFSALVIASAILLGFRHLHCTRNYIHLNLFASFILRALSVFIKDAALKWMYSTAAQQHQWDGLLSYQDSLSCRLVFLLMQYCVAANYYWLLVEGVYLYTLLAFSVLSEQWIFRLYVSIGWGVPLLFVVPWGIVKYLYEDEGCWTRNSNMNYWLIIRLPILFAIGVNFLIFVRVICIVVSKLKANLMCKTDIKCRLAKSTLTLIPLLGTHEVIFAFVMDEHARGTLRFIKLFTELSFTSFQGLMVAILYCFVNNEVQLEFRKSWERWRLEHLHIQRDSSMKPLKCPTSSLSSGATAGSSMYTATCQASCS

One assay concerns the target hGLP-1R (Homo sapiens, UniProt P43220). As to the kind of experiment: cell-based or functional assay.
B1: the Relative cAMP EC50 was found to be 1.27 nM.

For Y[Aib]QGTFTSDYSI[αMeL]LD[Orn]QAAK([AEEA-AEEA-γGlu-C20 diacid])QFVEWLLA[Aib]GPSSGEPPPSEG-NH2 [Example 328], the Relative cAMP EC50 was 1.3 nM and the cAMP Rel EC50 (1% HSA) came to 462 nM.

Y[Aib]QGTFTSDYSI[αMeL]LDKQAAK([AEEA-AEEA-γGlu-C20 diacid])QFVEWLLAGGPSSGEPPPGEG-NH2 [Example 320]: the Relative cAMP EC50 came out at 2.58 nM and the cAMP Rel EC50 (1% HSA) came out at 328 nM.

With Y[Aib]QGTFTSDYSI[αMeL]LDKQAAK([AEEA-AEEA-γGlu-C20 diacid])QFIEWLIEGGPSSGEPPPGEG-NH2 [Example 318], the Relative cAMP EC50 was determined as 0.698 nM and the cAMP Rel EC50 (1% HSA) was 111 nM.

Y[Aib]QGTFTSDYSI[αMeL]LDKQAAK([AEEA-AEEA-γGlu-C20 diacid])QFVEWLIA[Aib]GPSSGEPPPSEG-NH2 [Example 326] showed a Relative cAMP EC50 of 0.555 nM and a cAMP Rel EC50 (1% HSA) of 172 nM.

For the molecule Y[Aib]QGTFTSDYSK[αMeL]LDKK([AEEA-γGlu-C20 diacid])AQQAFIEYLIAGGPSSGAPPPSSE-NH2 [Example 322], the Relative cAMP EC50 amounted to 0.394 nM and the cAMP Rel EC50 (1% HSA) is 135 nM.

Take Y[Aib]QGTFTSDYSI[αMeL]LDKQAAK([AEEA-AEEA-γGlu-C20 diacid])QFVEWLLA[Aib]GPSSGAPPPSEG-NH2 [Example 327]: the Relative cAMP EC50 turned out to be 1.61 nM and the cAMP Rel EC50 (1% HSA) was 473 nM.

Consider Y[Aib]QGTFTSDYSI[αMeL]LDKQAAK([AEEA-AEEA-γGlu-C20 diacid])QFIEWLIEGGPSSGEPPPGAE-NH2 [Example 319], for which the Relative cAMP EC50 was 0.947 nM and the cAMP Rel EC50 (1% HSA) stood at 119 nM.

With Y[Aib]QGTFTSDYSKLLDKK([AEEA-γGlu-C20 diacid])AQ[Aib]AFVQWLIEGGPSSGEPPPSEG-NH2 [Example 316], the Relative cAMP EC50 stood at 0.362 nM and the cAMP Rel EC50 (1% HSA) was determined as 78.7 nM.

As for B2, the Relative cAMP EC50 worked out at 1.31 nM.

Take Y[Aib]QGTFTSDYSK[αMeL]LDKK([AEEA-γGlu-C20 diacid])AQQAFIQWLIEGGPSSGEPPPSEG-NH2 [Example 314]: the Relative cAMP EC50 turned out to be 0.274 nM and the cAMP Rel EC50 (1% HSA) came out at 100 nM.

As to Y[Aib]QGTFTSDYSI[αMeL]LDKQAAK([AEEA-AEEA-γGlu-C20 diacid])QFVNWLLA[Aib]GPSSGEPPPSEG-NH2 [Example 325], the Relative cAMP EC50 was determined as 1.56 nM and the cAMP Rel EC50 (1% HSA) worked out at 371 nM.

The next assay concerns the target T1, human GIP receptor (human). In words: cell-based or functional assay.
On to B1, for which the Relative cAMP EC50 came to 0.0646 nM.

As for Y[Aib]QGTFTSDYSI[αMeL]LD[Orn]QAAK([AEEA-AEEA-γGlu-C20 diacid])QFVEWLLA[Aib]GPSSGEPPPSEG-NH2 [Example 328], the Relative cAMP EC50 stood at 0.544 nM and the cAMP Rel EC50 (1% HSA) came out at 91.1 nM.

Y[Aib]QGTFTSDYSI[αMeL]LDKQAAK([AEEA-AEEA-γGlu-C20 diacid])QFVEWLLAGGPSSGEPPPGEG-NH2 [Example 320] displayed a Relative cAMP EC50 of 0.274 nM and a cAMP Rel EC50 (1% HSA) of 55.3 nM.

Regarding Y[Aib]QGTFTSDYSI[αMeL]LDKQAAK([AEEA-AEEA-γGlu-C20 diacid])QFIEWLIEGGPSSGEPPPGEG-NH2 [Example 318], the Relative cAMP EC50 amounted to 0.378 nM and the cAMP Rel EC50 (1% HSA) was 52.8 nM.

Y[Aib]QGTFTSDYSI[αMeL]LDKQAAK([AEEA-AEEA-γGlu-C20 diacid])QFVEWLIA[Aib]GPSSGEPPPSEG-NH2 [Example 326]: the Relative cAMP EC50 was 0.3 nM and the cAMP Rel EC50 (1% HSA) stood at 83.7 nM.

Y[Aib]QGTFTSDYSK[αMeL]LDKK([AEEA-γGlu-C20 diacid])AQQAFIEYLIAGGPSSGAPPPSSE-NH2 [Example 322]: the Relative cAMP EC50 was 0.264 nM and the cAMP Rel EC50 (1% HSA) was 89.3 nM.

In turn, Y[Aib]QGTFTSDYSI[αMeL]LDKQAAK([AEEA-AEEA-γGlu-C20 diacid])QFVEWLLA[Aib]GPSSGAPPPSEG-NH2 [Example 327] gave a Relative cAMP EC50 of 0.312 nM and a cAMP Rel EC50 (1% HSA) of 63.3 nM.

Regarding Y[Aib]QGTFTSDYSI[αMeL]LDKQAAK([AEEA-AEEA-γGlu-C20 diacid])QFIEWLIEGGPSSGEPPPGAE-NH2 [Example 319], the Relative cAMP EC50 came to 0.485 nM and the cAMP Rel EC50 (1% HSA) came to 60.1 nM.

In turn, Y[Aib]QGTFTSDYSKLLDKK([AEEA-γGlu-C20 diacid])AQ[Aib]AFVQWLIEGGPSSGEPPPSEG-NH2 [Example 316] registered a Relative cAMP EC50 of 0.259 nM and a cAMP Rel EC50 (1% HSA) of 102 nM.

Molecule B2 had a Relative cAMP EC50 of 0.0673 nM.

Molecule Y[Aib]QGTFTSDYSK[αMeL]LDKK([AEEA-γGlu-C20 diacid])AQQAFIQWLIEGGPSSGEPPPSEG-NH2 [Example 314] came in with a Relative cAMP EC50 of 0.345 nM and a cAMP Rel EC50 (1% HSA) of 65.9 nM.

On to Y[Aib]QGTFTSDYSI[αMeL]LDKQAAK([AEEA-AEEA-γGlu-C20 diacid])QFVNWLLA[Aib]GPSSGEPPPSEG-NH2 [Example 325], for which the Relative cAMP EC50 was determined as 0.351 nM and the cAMP Rel EC50 (1% HSA) came to 82.7 nM.

For the next assay, the target named is human glucagon receptor (human) (UniProt P47871). In words: cell-based or functional assay.
Chain of human glucagon receptor (human) (P47871 26-477): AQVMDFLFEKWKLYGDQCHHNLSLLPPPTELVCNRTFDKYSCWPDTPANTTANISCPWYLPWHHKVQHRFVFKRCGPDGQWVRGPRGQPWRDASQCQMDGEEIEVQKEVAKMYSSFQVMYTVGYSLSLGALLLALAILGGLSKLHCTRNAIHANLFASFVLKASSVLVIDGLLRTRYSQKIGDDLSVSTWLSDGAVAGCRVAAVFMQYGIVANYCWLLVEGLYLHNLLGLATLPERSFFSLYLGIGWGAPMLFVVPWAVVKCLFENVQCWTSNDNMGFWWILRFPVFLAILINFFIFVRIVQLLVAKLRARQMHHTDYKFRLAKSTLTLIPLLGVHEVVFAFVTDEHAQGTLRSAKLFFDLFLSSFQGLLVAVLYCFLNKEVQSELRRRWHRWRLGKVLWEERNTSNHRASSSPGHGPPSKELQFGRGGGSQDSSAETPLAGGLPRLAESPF
In the case of B1, the Relative cAMP EC50 turned out to be 7.38 nM.

Y[Aib]QGTFTSDYSI[αMeL]LD[Orn]QAAK([AEEA-AEEA-γGlu-C20 diacid])QFVEWLLA[Aib]GPSSGEPPPSEG-NH2 [Example 328] displayed a Relative cAMP EC50 of 10.3 nM and a cAMP Rel EC50 (1% HSA) of 2040 nM.

Molecule Y[Aib]QGTFTSDYSI[αMeL]LDKQAAK([AEEA-AEEA-γGlu-C20 diacid])QFVEWLLAGGPSSGEPPPGEG-NH2 [Example 320] came in with a Relative cAMP EC50 of 6.87 nM and a cAMP Rel EC50 (1% HSA) of 1170 nM.

On to Y[Aib]QGTFTSDYSI[αMeL]LDKQAAK([AEEA-AEEA-γGlu-C20 diacid])QFIEWLIEGGPSSGEPPPGEG-NH2 [Example 318], for which the Relative cAMP EC50 turned out to be 5.03 nM and the cAMP Rel EC50 (1% HSA) came out at 1970 nM.

In turn, Y[Aib]QGTFTSDYSI[αMeL]LDKQAAK([AEEA-AEEA-γGlu-C20 diacid])QFVEWLIA[Aib]GPSSGEPPPSEG-NH2 [Example 326] showed a Relative cAMP EC50 of 5.34 nM and a cAMP Rel EC50 (1% HSA) of 1500 nM.

Molecule Y[Aib]QGTFTSDYSK[αMeL]LDKK([AEEA-γGlu-C20 diacid])AQQAFIEYLIAGGPSSGAPPPSSE-NH2 [Example 322] gave a Relative cAMP EC50 of 5.41 nM and a cAMP Rel EC50 (1% HSA) of 2620 nM.

The molecule Y[Aib]QGTFTSDYSI[αMeL]LDKQAAK([AEEA-AEEA-γGlu-C20 diacid])QFVEWLLA[Aib]GPSSGAPPPSEG-NH2 [Example 327] displayed a Relative cAMP EC50 of 3.04 nM and a cAMP Rel EC50 (1% HSA) of 1400 nM.

Molecule Y[Aib]QGTFTSDYSI[αMeL]LDKQAAK([AEEA-AEEA-γGlu-C20 diacid])QFIEWLIEGGPSSGEPPPGAE-NH2 [Example 319] had a Relative cAMP EC50 of 4.81 nM and a cAMP Rel EC50 (1% HSA) of 1650 nM.

Take Y[Aib]QGTFTSDYSKLLDKK([AEEA-γGlu-C20 diacid])AQ[Aib]AFVQWLIEGGPSSGEPPPSEG-NH2 [Example 316]: the Relative cAMP EC50 is 5.22 nM and the cAMP Rel EC50 (1% HSA) is 2090 nM.

For B2, the Relative cAMP EC50 was determined as 5.89 nM.

In turn, Y[Aib]QGTFTSDYSK[αMeL]LDKK([AEEA-γGlu-C20 diacid])AQQAFIQWLIEGGPSSGEPPPSEG-NH2 [Example 314] showed a Relative cAMP EC50 of 3.7 nM and a cAMP Rel EC50 (1% HSA) of 1030 nM.

Y[Aib]QGTFTSDYSI[αMeL]LDKQAAK([AEEA-AEEA-γGlu-C20 diacid])QFVNWLLA[Aib]GPSSGEPPPSEG-NH2 [Example 325]: the Relative cAMP EC50 was found to be 2.43 nM and the cAMP Rel EC50 (1% HSA) came out at 774 nM.
